The record followed here is paper doi:10.1101/2022.01.20.477176v3.

As a reminder, the Km is the substrate concentration at which the rate is half of its maximum. Broadly, the kcat is the number of substrate molecules converted per active site and unit of time at saturation.

Holding throughout (assay): purified protein
Substrate in data set [1]: NC(=O)C1=CN([C@@H]2O[C@H](COP(=O)(O)OP(=O)(O)OC[C@H]3O[C@@H](n4cnc5c(N)ncnc54)[C@H](O)[C@@H]3O)[C@@H](O)[C@H]2O)C=CC1
Particulars: 1 mM acrylate, pH 6.5.

Substrate in data set [2]: C=C(C)C(=O)O
Conditions: 150 μM NADH (saturating), pH 6.5.

Substrate in data set [3]: C=CC(=O)O
Conditions: 150 μM NADH (saturating), pH 6.5.

B1: ARD (NADH:acrylate oxidoreductase) (Vibrio harveyi) (protein)
chain: MAQLVDEIVFQSGVKLHNRIVMAPMTIQSAFFDGGVTQEMINYYAARSGGAGAIIVESAFVENYGRAFPGALGIDTDSKIAGLTKLADAIKAKGSKAILQIYHAGRMANPEFNGGHQPISASPVAALRDNAETPLEMTKEQIEEMIERFGDAVNRAILAGFDGVEIHGANTYLIQQFFSPHSNRRNDKWGGNIERRTSFPLAVLAKTKQVAEQHNKSDFIIGYRFSPEEIEQPGIRFDDTMFLLDKLATHGLDYFHFSMGSWLRNSIVTPEDQEPLIDKYRKLQSESVAKVPVIGVGGIAQRKDAENALEQGYDMVSVGKGYLVEPTWANKALNDETCAEFADIAQQEALQIPTPLWEIMDYMIVDSAAEALKHQRIKELQNVPIKFNSGEYTAYGRGHNGDLPVTVTFSEDKILDIVVDSSKESDGIANPAFERIPQQILDGQTLNIDVISGATVSSQAVLDGVSNAVDLAGGNSEALRCKAKEAVAWSSKTIEETVDIVVVGGGGAGLSATLTALDKGKSVVLLEKFPAIGGNTVRTGGWVNAAEPKWQGDFPALPGEKETLMLLAKTAESEFSGEYLEDFKVLKAQLDGYFTDLENGKQYLFDSVELHRIQTYLGGKRTDLNGESIYGQYDLVETLTSRSMESIDWLSEKGIDFDRSVVEIPVGALWRRAHKPKRPKGVEFIDKLSKRIQEQNGRIITDTRATDLMVDNGKVVGIKAVQADGTELILHVNHGVVLASGGFGANTQMIKKYNTYWKEIADDIKTTNSPALVGDGIEIGEKAGAELVGMGFVQLMPVGDPKSGALLTGLIVPPENFVFVNKQGKRFVDECGSRDVLSEAFFDNGGLIYMIADENIRQTAANTSDETIEREIKEGIIIQADTLEELAEKIGVPTQELTNTIAQYNACVDAGQDPEFHKSAFGLKVEKAPFYATPRQPSVHHTMGGLKIDTKARVIGKDGEVIQGLYAAGEVTGGIHAGNRLGGNALIDIFTYGRIAGESASDLV
Take B1: the Km in the data set “purified protein [1]” is 14 ± 1 µM; in the data set “purified protein [2]” it was 690 ± 140 µM; in “purified protein [3]” it was 16 ± 1 µM. In addition, the kcat is 2.5 ± 0.2 s⁻¹ in “purified protein [2]” and 19 ± 1 s⁻¹ in the data set “purified protein [3]”.
